T1: mouse Islr2 ECD-Fc (mouse, UniProt Q5RKR3 20-589, biotin on the AviTag (as SPR ligand))
T1 sequence: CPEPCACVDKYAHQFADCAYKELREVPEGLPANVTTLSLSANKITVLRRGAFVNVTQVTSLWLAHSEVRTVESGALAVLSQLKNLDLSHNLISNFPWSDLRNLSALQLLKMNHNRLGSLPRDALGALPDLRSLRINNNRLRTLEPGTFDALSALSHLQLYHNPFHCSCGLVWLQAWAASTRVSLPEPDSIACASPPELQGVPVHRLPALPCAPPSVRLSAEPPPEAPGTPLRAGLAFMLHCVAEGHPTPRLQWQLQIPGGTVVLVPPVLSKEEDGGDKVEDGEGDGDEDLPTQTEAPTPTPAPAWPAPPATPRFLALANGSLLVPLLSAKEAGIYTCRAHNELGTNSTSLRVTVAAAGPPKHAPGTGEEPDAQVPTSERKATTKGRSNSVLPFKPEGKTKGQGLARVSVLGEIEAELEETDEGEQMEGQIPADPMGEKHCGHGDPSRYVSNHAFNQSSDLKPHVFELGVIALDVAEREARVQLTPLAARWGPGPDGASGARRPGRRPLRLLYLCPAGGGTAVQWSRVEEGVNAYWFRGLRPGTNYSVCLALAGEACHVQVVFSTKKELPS

T2: human ISLR2 ECD-Fc (human, UniProt Q6UXK2 19-589, biotin on the AviTag (as SPR ligand))
T2 sequence: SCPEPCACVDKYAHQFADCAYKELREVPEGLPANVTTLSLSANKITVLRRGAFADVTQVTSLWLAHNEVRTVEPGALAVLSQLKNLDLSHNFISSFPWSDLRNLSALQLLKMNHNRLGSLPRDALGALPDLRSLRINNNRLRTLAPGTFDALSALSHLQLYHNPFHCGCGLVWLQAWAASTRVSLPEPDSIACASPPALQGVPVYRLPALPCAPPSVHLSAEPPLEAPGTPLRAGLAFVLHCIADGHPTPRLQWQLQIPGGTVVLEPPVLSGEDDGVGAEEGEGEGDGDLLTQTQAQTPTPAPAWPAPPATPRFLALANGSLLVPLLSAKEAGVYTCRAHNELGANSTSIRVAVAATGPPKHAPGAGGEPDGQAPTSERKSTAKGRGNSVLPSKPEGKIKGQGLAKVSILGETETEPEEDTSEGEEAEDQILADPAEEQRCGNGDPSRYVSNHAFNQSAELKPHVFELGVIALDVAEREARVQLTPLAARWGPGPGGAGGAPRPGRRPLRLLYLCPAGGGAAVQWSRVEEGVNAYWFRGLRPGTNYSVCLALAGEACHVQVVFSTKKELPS

T3: mouse Lepr ECD-Fc (mouse, UniProt P48356 22-839, biotin on the AviTag (as SPR ligand))
T3 sequence: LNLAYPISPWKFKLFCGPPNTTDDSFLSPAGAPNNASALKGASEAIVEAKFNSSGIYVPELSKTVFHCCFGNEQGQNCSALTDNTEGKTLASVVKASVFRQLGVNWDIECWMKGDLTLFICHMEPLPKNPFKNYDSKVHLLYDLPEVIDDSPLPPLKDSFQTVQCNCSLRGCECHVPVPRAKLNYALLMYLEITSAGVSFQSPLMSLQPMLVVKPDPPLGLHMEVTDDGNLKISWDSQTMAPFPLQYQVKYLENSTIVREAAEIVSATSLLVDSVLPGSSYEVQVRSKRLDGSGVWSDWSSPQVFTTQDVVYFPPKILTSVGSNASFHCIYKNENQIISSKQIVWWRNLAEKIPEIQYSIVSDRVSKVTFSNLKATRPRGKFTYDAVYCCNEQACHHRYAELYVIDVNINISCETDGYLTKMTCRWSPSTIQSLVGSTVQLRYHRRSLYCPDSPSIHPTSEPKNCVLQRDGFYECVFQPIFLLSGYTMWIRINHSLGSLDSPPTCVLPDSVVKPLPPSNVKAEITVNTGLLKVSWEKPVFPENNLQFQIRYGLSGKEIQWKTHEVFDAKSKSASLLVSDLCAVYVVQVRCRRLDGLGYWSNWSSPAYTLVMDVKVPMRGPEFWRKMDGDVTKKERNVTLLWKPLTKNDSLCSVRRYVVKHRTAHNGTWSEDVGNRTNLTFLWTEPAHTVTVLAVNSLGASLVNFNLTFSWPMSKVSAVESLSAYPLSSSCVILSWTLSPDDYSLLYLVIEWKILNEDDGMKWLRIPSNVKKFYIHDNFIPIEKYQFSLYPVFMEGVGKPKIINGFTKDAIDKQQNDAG

T4: ICAM5 ECD-Fc (human, UniProt Q9UMF0 32-835, biotin on the AviTag (as SPR ligand))
T4 sequence: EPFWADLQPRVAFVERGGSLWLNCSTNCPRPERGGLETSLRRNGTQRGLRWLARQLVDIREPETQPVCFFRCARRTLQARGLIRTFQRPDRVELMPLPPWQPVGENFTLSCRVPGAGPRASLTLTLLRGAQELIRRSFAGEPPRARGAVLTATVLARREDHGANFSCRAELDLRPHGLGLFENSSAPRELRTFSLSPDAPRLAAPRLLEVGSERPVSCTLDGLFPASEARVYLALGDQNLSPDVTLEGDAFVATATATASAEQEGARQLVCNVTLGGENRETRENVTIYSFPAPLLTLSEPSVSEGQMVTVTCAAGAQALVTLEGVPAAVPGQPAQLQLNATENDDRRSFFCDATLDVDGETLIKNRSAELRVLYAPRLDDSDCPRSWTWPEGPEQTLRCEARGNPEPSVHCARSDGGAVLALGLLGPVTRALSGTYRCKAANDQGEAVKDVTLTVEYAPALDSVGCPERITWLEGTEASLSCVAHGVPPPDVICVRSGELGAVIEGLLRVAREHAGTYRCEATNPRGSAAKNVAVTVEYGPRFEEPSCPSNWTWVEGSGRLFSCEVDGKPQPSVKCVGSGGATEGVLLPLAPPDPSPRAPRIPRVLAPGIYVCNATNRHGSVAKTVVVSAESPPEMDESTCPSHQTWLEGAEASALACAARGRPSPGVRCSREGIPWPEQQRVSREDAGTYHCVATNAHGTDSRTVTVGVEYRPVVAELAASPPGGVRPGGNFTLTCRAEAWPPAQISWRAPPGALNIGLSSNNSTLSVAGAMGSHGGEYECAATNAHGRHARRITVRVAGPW

T5: WFIKKN2-Fc (human, UniProt Q8TEU8 35-576, biotin on the AviTag (as SPR ligand))
T5 sequence: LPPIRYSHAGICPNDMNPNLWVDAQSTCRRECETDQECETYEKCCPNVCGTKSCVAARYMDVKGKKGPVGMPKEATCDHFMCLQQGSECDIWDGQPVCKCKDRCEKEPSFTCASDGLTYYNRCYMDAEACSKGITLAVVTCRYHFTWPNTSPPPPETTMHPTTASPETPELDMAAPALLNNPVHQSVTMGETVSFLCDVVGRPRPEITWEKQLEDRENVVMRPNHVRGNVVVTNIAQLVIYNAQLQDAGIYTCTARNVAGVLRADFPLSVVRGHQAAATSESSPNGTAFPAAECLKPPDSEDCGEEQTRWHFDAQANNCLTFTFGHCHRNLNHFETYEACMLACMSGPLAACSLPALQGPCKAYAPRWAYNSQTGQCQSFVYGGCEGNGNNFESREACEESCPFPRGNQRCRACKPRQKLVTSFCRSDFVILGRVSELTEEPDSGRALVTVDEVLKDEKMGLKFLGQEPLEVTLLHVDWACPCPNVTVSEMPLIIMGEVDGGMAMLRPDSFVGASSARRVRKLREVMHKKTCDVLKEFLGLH


Key:
Test in all cases: SPR
mouse Islr2 ECD-Fc = target: T1, mouse Islr2 ECD-Fc
human ISLR2 ECD-Fc = target: T2, human ISLR2 ECD-Fc
mouse Lepr ECD-Fc = target: T3, mouse Lepr ECD-Fc
ICAM5 ECD-Fc = target: T4, ICAM5 ECD-Fc
WFIKKN2-Fc = target: T5, WFIKKN2-Fc
LTF-Fc = LTF-Fc (human, UniProt P02788, biotin on the AviTag (as SPR ligand))
Sequence of LTF-Fc (P02788 20-710): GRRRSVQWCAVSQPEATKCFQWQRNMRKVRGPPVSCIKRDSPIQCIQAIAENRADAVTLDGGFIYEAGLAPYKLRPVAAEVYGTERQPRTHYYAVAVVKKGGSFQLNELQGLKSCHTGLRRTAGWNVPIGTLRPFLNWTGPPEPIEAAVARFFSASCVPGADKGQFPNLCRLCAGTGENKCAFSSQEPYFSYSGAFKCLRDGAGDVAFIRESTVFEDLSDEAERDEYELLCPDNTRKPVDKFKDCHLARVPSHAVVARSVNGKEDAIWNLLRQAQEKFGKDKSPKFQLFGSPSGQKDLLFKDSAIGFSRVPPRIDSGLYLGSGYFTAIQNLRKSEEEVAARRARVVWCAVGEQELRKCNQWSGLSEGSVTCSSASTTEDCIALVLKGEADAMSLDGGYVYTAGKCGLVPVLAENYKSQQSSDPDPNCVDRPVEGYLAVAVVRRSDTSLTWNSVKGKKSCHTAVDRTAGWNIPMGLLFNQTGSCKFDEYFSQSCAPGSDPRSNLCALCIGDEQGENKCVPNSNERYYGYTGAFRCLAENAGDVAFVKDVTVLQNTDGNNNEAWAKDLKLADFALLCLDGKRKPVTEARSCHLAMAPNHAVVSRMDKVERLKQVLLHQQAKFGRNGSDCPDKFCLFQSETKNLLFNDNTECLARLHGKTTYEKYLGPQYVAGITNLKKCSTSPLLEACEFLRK

binding result (mouse Islr2 ECD-Fc) | binding result (human ISLR2 ECD-Fc) | binding result (mouse Lepr ECD-Fc) | binding result (ICAM5 ECD-Fc) | binding result (WFIKKN2-Fc) | binding result (LTF-Fc) | Binder
binds | binds | binds |  |  |  | Recombinant Mouse Leptin Protein (monomer) (ligand) VPIQKVQDDTKTLIKTIVTRINDISHTQSVSAKQRVTGLDFIPGLHPILSLSKMDQTLAVYQQVLTSLPSQNVLQIANDLENLRDLLHLLAFSKSCSLPQTSGLQKPESLDGVLEASLYSTEVVALSRLQGSLQDILQQLDVSPEC
 | binds |  | binds | binds | binds | IL-6Rα ECD-Fc (Fc fusion, biotin on the AviTag (as SPR ligand)) LAPRRCPAQEVARGVLTSLPGDSVTLTCPGVEPEDNATVHWVLRKPAAGSHPSRWAGMGRRLLLRSVQLHDSGNYSCYRAGRPAGTVHLLVDVPPEEPQLSCFRKSPLSNVVCEWGPRSTPSLTTKAVLLVRKFQNSPAEDFQEPCQYSQESQKFSCQLAVPEGDSSFYIVSMCVASSVGSKFSKTQTFQGCGILQPDPPANITVTAVARNPRWLSVTWQDPHSWNSSFYRLRFELRYRAERSKTFTTWMVKDLQHHCVIHDAWSGLRHVVQLRAQEEFGQGEWSEWSPEAMGTPWTESRSPPAENEVSTPMQALTTNKDDDNILFRDSANATSLPVQDSSSVPLP
